Test results published in patent publication US20220273679A1, “METHODS AND COMPOSITIONS FOR TREATING AND PREVENTING DAMAGE TO SKIN” (New York Society for the Relief of the Ruptured and …, priority 2019, published 2022).

What was measured:
[1] = system: MRL-Faslpr mice; experiment: Multi-day UVR lesion development in MRL-Faslpr SLE model mice with topical treatment; format: in vivo, mouse
Procedure: FIGS. 8A-8C. Topical EGFR ligand reduces photosensitivity. (8A) Experimental scheme for (B-C) (n=4 mice). MRL-Faslpr mice ears and back skin were topically treated with HB-EGF for 2 days before and on the first day of UVR exposure and examined 24 hours after the final exposure. Ears were treated with Control plus vehicle, UVR plus vehicle, UVR+ HB-EGF and MRL-MpJ UVR+ vehicle. The MRL-MpJ ear represents a non-SLE control. (8C) Graph of ear histopathology scores. (8C) Graph of absolute monocyte numbers. Data are from 3 independent experiments. Bars represent means.
FIGS. 18A-18B. EGFR ligand application reduces the severity of UVR-induced skin lesions and lymph node B cell responses in SLE model mice. Mice were treated with HB-EGF (n=4 mice). Lesional areas are seen in magnified images of back lesions (not shown). Neutrophil-dominant infiltrate and ulceration are seen in H&E images of ear skin (not shown). (18A, 18B) Germinal center B cell (18A) and plasma cell (18B) numbers in skin draining lymph nodes (auricular and inguinal) normalized to mice treated with UVR+ vehicle. Each symbol represents either inguinal or auricular lymph nodes from multiple mice. Data from 2 independent experiments. Bars represent means.
The remaining hair on the back skin of the mice was removed using Nair and photographs were taken. The total back area and lesional area (skin affected by erythema, scaliness, crustiness, or epidermal erosion) was measured by a blinded observer using ImageJ software and skin lesions were quantified as percent of back area.
Skin histopathology scoring: A blinded expert dermatopathologist scored H&E stained sections based on dermal inflammation (0-3).

[2] = system: Langerin-DTA mice; experiment: UVR-induced keratinocyte apoptosis and monocyte accumulation in ears of Langerin-DTA mice; conditions: 2 ug per ear 15 minutes prior to UVR, 24 hours after UVR
Procedure: (3C,3D) Mouse ears were treated with vehicle or HB-EGF prior to UVR and examined 24 hours after UVR (n=3-4 mice). (3C) Graph of activated caspase-3+ keratinocytes. (3D) Graph of absolute (left) and normalized (right) monocyte numbers. […] Bars represent means. Error bars depict standard deviations.
For indicated 24 hour experiments, HB-EGF (2 ug; R&D Systems) dissolved in dimethyl sulfoxide (DMSO) was applied to each ear 15 minutes prior to UVR exposure.
For immunofluorescence staining of murine skin, frozen unfixed mouse skin was sectioned, fixed with cold acetone for 10 minutes, and stained as indicated (15). Epidermal activated caspase-3+ cells per high powered field (40× magnification) were quantified by a blinded observer using ImageJ software (NIH) and classified as activated caspase-3+ keratinocytes (Langerin− and CD3−), LCs (Langerin+), or T cells (CD3+).

[3] = system: LC-Ad17 mice; experiment: UVR-induced keratinocyte apoptosis and monocyte numbers in ears of LC-Ad17 mice; format: in vivo, mouse; conditions: applied on ears prior to UVR, 24 hours
Procedure: FIGS. 5A-5H. LC-derived ADAM17 limits UVR-induced keratinocyte apoptosis and skin injury. (5A-5D) Graphs showing WT and LC-Ad17 mice were treated with UVR and analyzed at indicated time points. (5A) Graph showing activated caspase-3+ keratinocytes (n=3-5 mice). […] (5C) Graph showing epidermal thickness (n=3-4 mice). (5D) Graph showing quantification of epidermal permeability (n=3-5 mice). (5E,5F) Vehicle or HB-EGF was applied on the ears prior to UVR exposure (n=3-4 mice). (5E) Graph showing activated caspase-3+ keratinocytes. (5F) Graphs showing absolute (left) and normalized (right) monocyte numbers. (5G,5H) Effect of LC Adam17 deletion or ADAM17 blockade on keratinocyte survival in vitro. Murine keratinocytes with LCs from indicated mice (5G) and human keratinocytes with control-IgG or anti-ADAM17-treated LCs (5H) were exposed to UVR and examined at 24 hours (n=3 mice or 4 human donors). Data are from 3 (5E-5G), 4 (5A), 2 (5H), 5 (5B), and 1 (5C,5D) independent experiments. Bars represent means (5A,5B,5D-H) or medians (5C).

[4] = system: ADAM17; conditions: mouse embryonic fibroblasts; cited from earlier work
[5] = MRL-Faslpr mice, topical, multi-day UVR
[6] = MRL/lpr lupus model, topical application

B1: heparin-binding EGF-like growth factor (protein)
chain: DLQEADLDLLRVTLSSKPQALATPNKEEHGKRKKKGKGLGKKRDPCLRKYKDFCIHGECKYVKELRAPSCICHPGYHGERCHGLSL
In the case of B1, the “severity of UVR-induced skin lesions” value ([1]; MRL-Faslpr mice, topical on ears and back for three consecutive days, 6 days UVR) is reported as “reduced the severity”, the “germinal center B cells in skin-draining lymph nodes” value [1, 5] is reported as “reduced” and the “plasma cells in skin-draining lymph nodes” value [1, 5] is reported as “reduced”. The monocyte accumulation ([1]; MRL-Faslpr mice, topical, multi-day UVR, 24 hours after final exposure) was “reduced”, the photosensitivity [1, 6] was “reduces” and the “skin-draining lymph node (B cell) responses” value [1, 6] was “reduction”. For the same molecule, the “skin-draining lymph node (B cell) responses” value ([1]; MRL/lpr lupus model, topical application, listed as Hb-EGF) was “reduces”, the “UVR-induced apoptotic keratinocyte accumulation” value [2] was “reduced” and the UVR-induced monocyte accumulation [2] was “reduced”. For the same molecule, the “UVR-induced skin inflammation (monocyte numbers)” value [3] was “dampened” and the “increased UVR-induced keratinocyte apoptosis” value [3] was “dampened”.

B2: EGF: EGFR-ligand cited as stimulating ADAM17 (protein, UniProt P01133 23-1207, looked up)
Pro-epidermal growth factor: PQHWSCPEGTLAGNGNSTCVGPAPFLIFSHGNSIFRIDTEGTNYEQLVVDAGVSVIMDFHYNEKRIYWVDLERQLLQRVFLNGSRQERVCNIEKNVSGMAINWINEEVIWSNQQEGIITVTDMKGNNSHILLSALKYPANVAVDPVERFIFWSSEVAGSLYRADLDGVGVKALLETSEKITAVSLDVLDKRLFWIQYNREGSNSLICSCDYDGGSVHISKHPTQHNLFAMSLFGDRIFYSTWKMKTIWIANKHTGKDMVRINLHSSFVPLGELKVVHPLAQPKAEDDTWEPEQKLCKLRKGNCSSTVCGQDLQSHLCMCAEGYALSRDRKYCEDVNECAFWNHGCTLGCKNTPGSYYCTCPVGFVLLPDGKRCHQLVSCPRNVSECSHDCVLTSEGPLCFCPEGSVLERDGKTCSGCSSPDNGGCSQLCVPLSPVSWECDCFPGYDLQLDEKSCAASGPQPFLLFANSQDIRHMHFDGTDYGTLLSQQMGMVYALDHDPVENKIYFAHTALKWIERANMDGSQRERLIEEGVDVPEGLAVDWIGRRFYWTDRGKSLIGRSDLNGKRSKIITKENISQPRGIAVHPMAKRLFWTDTGINPRIESSSLQGLGRLVIASSDLIWPSGITIDFLTDKLYWCDAKQSVIEMANLDGSKRRRLTQNDVGHPFAVAVFEDYVWFSDWAMPSVMRVNKRTGKDRVRLQGSMLKPSSLVVVHPLAKPGADPCLYQNGGCEHICKKRLGTAWCSCREGFMKASDGKTCLALDGHQLLAGGEVDLKNQVTPLDILSKTRVSEDNITESQHMLVAEIMVSDQDDCAPVGCSMYARCISEGEDATCQCLKGFAGDGKLCSDIDECEMGVPVCPPASSKCINTEGGYVCRCSEGYQGDGIHCLDIDECQLGEHSCGENASCTNTEGGYTCMCAGRLSEPGLICPDSTPPPHLREDDHHYSVRNSDSECPLSHDGYCLHDGVCMYIEALDKYACNCVVGYIGERCQYRDLKWWELRHAGHGQQQKVIVVAVCVVVLVMLLLLSLWGAHYYRTQKLLSKNPKNPYEESSRDVRSRRPADTEDGMSSCPQPWFVVIKEHQDLKNGGQPVAGEDGQAADGSMQPTSWRQEPQLCGMGTEQGCWIPVSSDKGSCPQVMERSFHMPSYGTQTLEGGVEKPHSLLSANPLWQQRALDPPHQMELTQ
modifications: Pro-epidermal growth factor
notes: EGFR-ligand cited as stimulating ADAM17
For B2, the ADAM17 activation [4] is listed as “activated”.
